Data as given in patent US20210324028A1 (Pfizer, published 2021).

T1: human IL-2Rβ (human, UniProt P14784 27-240, limits assumed)
T1 construct: also called hIL-2Rβ; IL-2 receptor beta
T1 sequence (looked up): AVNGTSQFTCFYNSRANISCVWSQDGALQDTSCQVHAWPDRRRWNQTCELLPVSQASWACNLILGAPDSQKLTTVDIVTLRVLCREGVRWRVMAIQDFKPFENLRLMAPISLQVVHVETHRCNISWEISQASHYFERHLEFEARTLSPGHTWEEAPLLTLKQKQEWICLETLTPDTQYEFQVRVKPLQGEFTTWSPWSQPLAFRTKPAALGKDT


Assays:
human IL-2Rβ = target: T1, human IL-2Rβ; assay: SPR, steady state
human IL-15Rα = target: T2, human IL-15Rα (human, UniProt Q13261 31-205, limits assumed); assay: SPR, steady state
T2 construct: also called hIL-15Rα; IL-15 receptor alpha
T2 sequence (Q13261 31-205 limits assumed): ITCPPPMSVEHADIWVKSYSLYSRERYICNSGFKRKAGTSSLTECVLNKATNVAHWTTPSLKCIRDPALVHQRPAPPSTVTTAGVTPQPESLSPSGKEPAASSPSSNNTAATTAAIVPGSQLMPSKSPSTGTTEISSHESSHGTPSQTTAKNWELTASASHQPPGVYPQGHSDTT

Binder	Kd (human IL-2Rβ) [µM]	Kd (human IL-15Rα) [µM]
hIL-15 V49R/I68A (ligand) NWVNVISDLKKIEDLIQSMHIDATLYTESDVHPSCKVTAMKCFLLELQRISLESGDASIHDTVENLIALANNSLSSNGNVTESGCKECEELEEKNIKEFLQSFVHIVQMFINTGGGGSGHHHHHHHHGGGLNDIFEAQKIEWHE	> 0.5	0.113
hIL-15 V49R/K11A (ligand) NWVNVISDLKAIEDLIQSMHIDATLYTESDVHPSCKVTAMKCFLLELQRISLESGDASIHDTVENLIILANNSLSSNGNVTESGCKECEELEEKNIKEFLQSFVHIVQMFINTGGGGSGHHHHHHHHGGGLNDIFEAQKIEWHE	0.206	0.191
hIL-15 V49R/K10D (ligand) NWVNVISDLDKIEDLIQSMHIDATLYTESDVHPSCKVTAMKCFLLELQRISLESGDASIHDTVENLIILANNSLSSNGNVTESGCKECEELEEKNIKEFLQSFVHIVQMFINTGGGGSGHHHHHHHHGGGLNDIFEAQKIEWHE	> 0.5	0.27
hIL-15 V49R/K10A (ligand) NWVNVISDLAKIEDLIQSMHIDATLYTESDVHPSCKVTAMKCFLLELQRISLESGDASIHDTVENLIILANNSLSSNGNVTESGCKECEELEEKNIKEFLQSFVHIVQMFINTGGGGSGHHHHHHHHGGGLNDIFEAQKIEWHE	0.321	0.15
hIL-15 V49R/I111S (ligand) NWVNVISDLKKIEDLIQSMHIDATLYTESDVHPSCKVTAMKCFLLELQRISLESGDASIHDTVENLIILANNSLSSNGNVTESGCKECEELEEKNIKEFLQSFVHIVQMFSNTGGGGSGHHHHHHHHGGGLNDIFEAQKIEWHE	> 0.5	0.223
hIL-15 V49R/I68M (ligand) NWVNVISDLKKIEDLIQSMHIDATLYTESDVHPSCKVTAMKCFLLELQRISLESGDASIHDTVENLIMLANNSLSSNGNVTESGCKECEELEEKNIKEFLQSFVHIVQMFINTGGGGSGHHHHHHHHGGGLNDIFEAQKIEWHE	> 1	0.0962
hIL-15 V49R/K10L (ligand) NWVNVISDLLKIEDLIQSMHIDATLYTESDVHPSCKVTAMKCFLLELQRISLESGDASIHDTVENLIILANNSLSSNGNVTESGCKECEELEEKNIKEFLQSFVHIVQMFINTGGGGSGHHHHHHHHGGGLNDIFEAQKIEWHE	0.348	0.124
hIL-15 V49R/K10N (ligand) NWVNVISDLNKIEDLIQSMHIDATLYTESDVHPSCKVTAMKCFLLELQRISLESGDASIHDTVENLIILANNSLSSNGNVTESGCKECEELEEKNIKEFLQSFVHIVQMFINTGGGGSGHHHHHHHHGGGLNDIFEAQKIEWHE	0.23	0.128
hIL-15 V49R/I68R (ligand) NWVNVISDLKKIEDLIQSMHIDATLYTESDVHPSCKVTAMKCFLLELQRISLESGDASIHDTVENLIRLANNSLSSNGNVTESGCKECEELEEKNIKEFLQSFVHIVQMFINTGGGGSGHHHHHHHHGGGLNDIFEAQKIEWHE	> 0.5	0.102
hIL-15 V49R/I68T (ligand) NWVNVISDLKKIEDLIQSMHIDATLYTESDVHPSCKVTAMKCFLLELQRISLESGDASIHDTVENLITLANNSLSSNGNVTESGCKECEELEEKNIKEFLQSFVHIVQMFINTGGGGSGHHHHHHHHGGGLNDIFEAQKIEWHE	> 0.5	0.0763
hIL-15 V49R/I68N (ligand) NWVNVISDLKKIEDLIQSMHIDATLYTESDVHPSCKVTAMKCFLLELQRISLESGDASIHDTVENLINLANNSLSSNGNVTESGCKECEELEEKNIKEFLQSFVHIVQMFINTGGGGSGHHHHHHHHGGGLNDIFEAQKIEWHE	> 1	0.085
hIL-15 V49R/K10R (ligand) NWVNVISDLRKIEDLIQSMHIDATLYTESDVHPSCKVTAMKCFLLELQRISLESGDASIHDTVENLIILANNSLSSNGNVTESGCKECEELEEKNIKEFLQSFVHIVQMFINTGGGGSGHHHHHHHHGGGLNDIFEAQKIEWHE	0.146	0.0945
hIL-15 V49R/K10S (ligand) NWVNVISDLSKIEDLIQSMHIDATLYTESDVHPSCKVTAMKCFLLELQRISLESGDASIHDTVENLIILANNSLSSNGNVTESGCKECEELEEKNIKEFLQSFVHIVQMFINTGGGGSGHHHHHHHHGGGLNDIFEAQKIEWHE	0.496	0.195
hIL-15 V49R/I111K (ligand) NWVNVISDLKKIEDLIQSMHIDATLYTESDVHPSCKVTAMKCFLLELQRISLESGDASIHDTVENLIILANNSLSSNGNVTESGCKECEELEEKNIKEFLQSFVHIVQMFKNTGGGGSGHHHHHHHHGGGLNDIFEAQKIEWHE	0.397	0.199
hIL-15 V49R/I68F (ligand) NWVNVISDLKKIEDLIQSMHIDATLYTESDVHPSCKVTAMKCFLLELQRISLESGDASIHDTVENLIFLANNSLSSNGNVTESGCKECEELEEKNIKEFLQSFVHIVQMFINTGGGGSGHHHHHHHHGGGLNDIFEAQKIEWHE	> 1	0.0785
hIL-15 V49R/I68Y (ligand) NWVNVISDLKKIEDLIQSMHIDATLYTESDVHPSCKVTAMKCFLLELQRISLESGDASIHDTVENLIYLANNSLSSNGNVTESGCKECEELEEKNIKEFLQSFVHIVQMFINTGGGGSGHHHHHHHHGGGLNDIFEAQKIEWHE	> 1	0.0929
hIL-15 V49R/I111A (ligand) NWVNVISDLKKIEDLIQSMHIDATLYTESDVHPSCKVTAMKCFLLELQRISLESGDASIHDTVENLIILANNSLSSNGNVTESGCKECEELEEKNIKEFLQSFVHIVQMFANTGGGGSGHHHHHHHHGGGLNDIFEAQKIEWHE	0.375	0.173
hIL-15 V49R/K10W (ligand) NWVNVISDLWKIEDLIQSMHIDATLYTESDVHPSCKVTAMKCFLLELQRISLESGDASIHDTVENLIILANNSLSSNGNVTESGCKECEELEEKNIKEFLQSFVHIVQMFINTGGGGSGHHHHHHHHGGGLNDIFEAQKIEWHE	0.185	0.101
hIL-15 V49R/K10E (ligand) NWVNVISDLEKIEDLIQSMHIDATLYTESDVHPSCKVTAMKCFLLELQRISLESGDASIHDTVENLIILANNSLSSNGNVTESGCKECEELEEKNIKEFLQSFVHIVQMFINTGGGGSGHHHHHHHHGGGLNDIFEAQKIEWHE	0.36	0.126
hIL-15 V49R/K10H (ligand) NWVNVISDLHKIEDLIQSMHIDATLYTESDVHPSCKVTAMKCFLLELQRISLESGDASIHDTVENLIILANNSLSSNGNVTESGCKECEELEEKNIKEFLQSFVHIVQMFINTGGGGSGHHHHHHHHGGGLNDIFEAQKIEWHE	0.114	0.0856
hIL-15 V49R/K10G (ligand) NWVNVISDLGKIEDLIQSMHIDATLYTESDVHPSCKVTAMKCFLLELQRISLESGDASIHDTVENLIILANNSLSSNGNVTESGCKECEELEEKNIKEFLQSFVHIVQMFINTGGGGSGHHHHHHHHGGGLNDIFEAQKIEWHE	> 0.5	0.209
hIL-15 V49R/I111D (ligand) NWVNVISDLKKIEDLIQSMHIDATLYTESDVHPSCKVTAMKCFLLELQRISLESGDASIHDTVENLIILANNSLSSNGNVTESGCKECEELEEKNIKEFLQSFVHIVQMFDNTGGGGSGHHHHHHHHGGGLNDIFEAQKIEWHE	> 0.5	0.214
hIL-15 V49R/K10Q (ligand) NWVNVISDLQKIEDLIQSMHIDATLYTESDVHPSCKVTAMKCFLLELQRISLESGDASIHDTVENLIILANNSLSSNGNVTESGCKECEELEEKNIKEFLQSFVHIVQMFINTGGGGSGHHHHHHHHGGGLNDIFEAQKIEWHE	0.25	0.1
hIL-15 V49R/I68H (ligand) NWVNVISDLKKIEDLIQSMHIDATLYTESDVHPSCKVTAMKCFLLELQRISLESGDASIHDTVENLIHLANNSLSSNGNVTESGCKECEELEEKNIKEFLQSFVHIVQMFINTGGGGSGHHHHHHHHGGGLNDIFEAQKIEWHE	> 1	0.0876
hIL-15 V49R/I68V (ligand) NWVNVISDLKKIEDLIQSMHIDATLYTESDVHPSCKVTAMKCFLLELQRISLESGDASIHDTVENLIVLANNSLSSNGNVTESGCKECEELEEKNIKEFLQSFVHIVQMFINTGGGGSGHHHHHHHHGGGLNDIFEAQKIEWHE	0.296	0.104
hIL-15 V49R/I68L (ligand) NWVNVISDLKKIEDLIQSMHIDATLYTESDVHPSCKVTAMKCFLLELQRISLESGDASIHDTVENLILLANNSLSSNGNVTESGCKECEELEEKNIKEFLQSFVHIVQMFINTGGGGSGHHHHHHHHGGGLNDIFEAQKIEWHE	0.245	0.0736
hIL-15 V49R/K10M (ligand) NWVNVISDLMKIEDLIQSMHIDATLYTESDVHPSCKVTAMKCFLLELQRISLESGDASIHDTVENLIILANNSLSSNGNVTESGCKECEELEEKNIKEFLQSFVHIVQMFINTGGGGSGHHHHHHHHGGGLNDIFEAQKIEWHE	0.391	0.122
